Substitutions are numbered along the chain they refer to. Names may count otherwise.
B1: sperm lysin from red abalone (Haliotis rufescens), wild type (natural protein)
chain: RSWHYVEPKFLNKAFEVALKVQIIAGFDRGLVKWLRVHGRTLSTVQKKALYFVNRRYMQTHWANYMLWINKKIDALGRTPVVGDYTRLGAEIGRRIDMAYFYDFLKDKNMIPKYLPYMEEINRMRPADVPVKYMGK
B2: F104A lysin (monomeric mutant of red abalone sperm lysin) (natural protein)
chain: B1 chain with F104A

What was measured:
[1] = molecular target: the molecule itself; assay: NMR relaxation
[2] = molecular target: the molecule itself; assay: cell-based or functional assay

| Protein | binding result [1] | in vitro VE dissolution (turbidity at 640 nm), F104A lysin against WT lysin [2] |
| --- | --- | --- |
| B1 | binds | – |
| B2 | – | ≥ 4 fold |
